Laboratory results reported in publication PMC12319226 (Frontiers in Bioinformatics, 2025).
Positions count from the first letter of the chain named.

T1: fHbp m002334 (Neisseria meningitidis, engineered fHbp …, chimera)
T1 chain: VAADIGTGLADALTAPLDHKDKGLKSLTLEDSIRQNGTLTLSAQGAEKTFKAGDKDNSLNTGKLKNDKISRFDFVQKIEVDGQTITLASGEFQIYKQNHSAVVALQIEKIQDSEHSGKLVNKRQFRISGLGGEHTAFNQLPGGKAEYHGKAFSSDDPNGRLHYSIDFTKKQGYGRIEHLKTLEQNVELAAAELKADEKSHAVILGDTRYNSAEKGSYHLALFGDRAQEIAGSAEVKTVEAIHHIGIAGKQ

T2: fHbp m001941 (Neisseria meningitidis fHbp v3.28, …, chimera)
T2 chain: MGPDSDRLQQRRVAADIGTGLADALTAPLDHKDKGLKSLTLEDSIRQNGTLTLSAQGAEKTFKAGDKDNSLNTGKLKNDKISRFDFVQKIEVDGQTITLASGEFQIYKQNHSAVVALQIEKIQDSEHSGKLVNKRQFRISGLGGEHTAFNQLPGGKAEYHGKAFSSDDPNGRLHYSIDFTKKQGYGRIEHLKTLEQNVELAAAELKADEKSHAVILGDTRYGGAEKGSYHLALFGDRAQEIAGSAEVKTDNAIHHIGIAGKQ

T3: fHbp m001820 (Neisseria meningitidis fHbp v3.28, …, point mutant)
T3 chain: T2 chain with G223S, T249S, D250V, N251E, A252G

T4: fHbp m001608 (Neisseria meningitidis, fHbp …, point mutant)
T4 chain: T2 chain with Y221L, G222N, G223S, D250V, A252S

B1: mAb 1E6 (human) (antibody, V domains shown)
VH: EVQLVQSGAEVKKPGSSVKVSCKASGGTVIDYPITWVRQAPGQGLEWVGGFVPLFRTSNYGQKFQGRVTITADKSTSTASMELNSLTSEDTAIYYCARGDTAMGPFDYWGQGTLVTVSS
VL: SYVLTQPPSLSVAPGKTATLTCGGNNIAGKTVHWYQQRPGQAPVLVISYDSDRPSGIPERFSGSNSANTATLTISRVEAGDEADYYCQVWDRNSDHWVFGGGTKLTVL
notes: source: Expi293, purified (MabSelect SuRe, SEC); copies: 2 + 2
B2: chimeric antibody h12C1 (antibody, V domains shown)
VH: QVQLQESGPELVKPGASVKISCKASGYSFSDYNMSWVKQSNGKSLEWIGIIDPKYGTINYNQKFKGKATLTVDQASSTAYMQLNSLTSEDSAVYYCVRDYYGSSYFDYWGQGTTLTVSS
VL: DIVLTQSPSSIYASLGERVTLTCKASQDIHNYLNWFQQKPGKSPKTLIYRANRLVDGVPSRFSGGGSGQDYSLTISSLEFEDIGIYYCLQYDEFPPTFGGGTRLEIK
notes: also called humanized 12C1; source: Expi293, purified (MabSelect SuRe, SEC); copies: 2 + 2

Legend:
Assay in all cases: BLI
Conditions in all cases: both partners purified
[1] = biological target: T1, fHbp m002334
[2] = biological target: T2, fHbp m001941
[3] = biological target: T3, fHbp m001820
[4] = biological target: T4, fHbp m001608
[5] = biological target: T5, factor H binding protein variant 1.1 (Neisseria meningitidis serogroup B …, UniProt Q9JXV4)
T5 construct: also called fHbp v1.1; v1.1 Control (0001)

Binder | Kd [1] [nM] | koff [1] [s⁻¹] | kon [1] [M⁻¹ s⁻¹] | Kd [2] [nM] | koff [2] [s⁻¹] | kon [2] [M⁻¹ s⁻¹] | Kd [3] [nM] | koff [3] [s⁻¹] | kon [3] [M⁻¹ s⁻¹] | Kd [4] [nM] | koff [4] [s⁻¹] | kon [4] [M⁻¹ s⁻¹] | Kd [5] [nM] | koff [5] [s⁻¹] | kon [5] [M⁻¹ s⁻¹]
B1 | 0.844 | 0.000101 | 119300 ± 930 | 0.464 | 0.00015 | 323000 ± 2300 | 0.531 | 0.000171 | 322300 ± 1430 | 0.154 | 8.28e-05 | 537900 ± 1940 | – | – | –
B2 | – | – | – | – | – | – | – | – | – | – | – | – | 0.391 | 0.000273 | 697400 ± 1920
